From publication PMC10284691, “A tripartite rheostat controls self-regulated host plant resistance to insects” (Nature, 2023)

Tests used:
[1] = target: T1, BISP (purified from insect cells) (Nilaparvata lugens (brown planthopper)); test: BLI; Octet RED96; biotinylated LRR or N14–LRR (20 μg/ml) on streptavidin biosensors, BISP, BISP(26–124) or BISP(125–241) in solution at different concentrations; PBS pH 7.4 with 0.05% Tween 20 and 0.5% BSA; 25 °C; association 180 s, dissociation 180 s; global fit; settings: both partners purified
T1 construct: probably this one too; source: SF9 insect cells (baculovirus), purified (Ni-NTA, dialysed in PBS)

[2] = target: T2, BISP(26–124) (purified from insect cells) (Nilaparvata lugens (brown planthopper)); test: as above; settings: both partners purified
T2 construct: source: SF9 insect cells (baculovirus), purified (Ni-NTA, dialysed in PBS)

B1: BPH14–LRR (purified from insect cells) (domain or fragment)
chain: SGDRPEAIRTPSPEKGYPGIQTLICSRFKYLQNVSKYRSLRVLTTMWEGSFLIPKYHHHLRYLDLSESEIKALPEDISILYHLQTLNLSRCLSLRRLPKGMKYMTALRHLYTHGCWSLGSMPPDLGHLTCLQTLTCFVAGTCSGCSDLGELRQLDLGGRLELRKLENVTKADAKAANLGKKEKLTKLTLIWTDQEYKEAQSNNHKEVLEGLTPHEGLKVLSIYHCGSSTCPTWMNKLRDMVGLELNGCKNLEKLPPLWQLPALQVLCLEGLGSLNCLFNCDTHTPFTFCRLKELTLSDMTNFETWWDTNEVQGEELMFPEVEKLSIESCHRLTALPKASNAISESSGEVSTVCRSAFPALKEMKLYDLRIFQKWEAVDGTPREEATFPQLDKLEIRQCPELTTLPEAPKLSDLEISKGNQQISLQAASRHITSLSSLVLHLSTDDTETASVAKQQDSSDLVIEDEKWSHKSPLELMVLSRCNLLFSHPSALALWTCFAQLLDLKIRYVDALVSWPEEVFQGLVSLRKLEISVCENLTGHTQARGQSTPAPSELLPRLESLEITCCDSIVEVPNLPASLKLLEIRGCPGLESIVFNQQQDRTMLVSAESFAEQDKSSLISGSTSETNDHVLPRLESLVINWCDRLEVLHLPPSIKKLGIYSCEKLRSLSVKLDAVRELSIRHCGSLKSLESCLGELASLQQLKLFDCKSLESLPKGPQAYSSLTSLEIRGCSGIKVLPPSLQQRLDDIEDKELDACYEEAEAEPKSRHRQSAISRLMCLK
modifications: biotin (NHS-biotin) in the BLI assays; RED-NHS 2nd Generation dye in the MST assays
B1 showed a Kd [1] of 32.1 nM and a Kd [2] of 127 nM.
